Our source for the stoichiometry N values is PMC7968656.

What is called stoichiometry N is a count of units in the complex or per binding partner.

For this assay, the target named is protrusion protein of OmRV-LZ (N-terminal part of P3, cleaved from the ORF1-encoded precursor) (Omono River virus strain LZ (OmRV-LZ)). Description: cryo-EM structure; sub-particle refinement of the protrusion extracted from the virus particles, capsid signal subtracted; first C1, then C5 symmetry; 4.10 Å.

In turn, “protrusion protein of OmRV-LZ (N-terminal part of P3, cleaved from the ORF1-encoded precursor) (natural protein)” yielded a stoichiometry N of 5.
